Measurements as given in the DeepSol protein solubility set.

Experiment: soluble on expression in E. coli; label from the status in PepcDB or PDB records

Sequence	soluble on expression in E. coli
MELQEVLHMNGGEGDTSYAKNSSYNLFLIRVKPVLEQCIQELLRANLPNINKCFKVGDLGCASGPNTFSTVRDIVQSIDKVGQEKKNELERPTIQIFLNDLFQNDFNSVFKLLPSFYRNLEKENGRKIGSCLIGAMPGSFYSRLFPEESMHFLHSCYCLHWLSQVPSGLVTELGISVNKGCIYSSKASRPPIQKAYLDQFTKDFTTFLRIHSEELISRGRMLLTFICKEDEFDHPNSMDLLEMSINDLVIEGHLEEEKLDSFNVPIYAPSTEEVKRIVEEEGSFEILYLETFNAPYDAGFSIDDDYQGRSHSPVSCDEHARAAHVASVVRSIYEPILASHFGEAILPDLSHRIAKNAAKVLRSGKGFYDSVIISLAKKPEKADM	soluble
MKIGIFDSGAGGMTVLKAIREAYPNVDVVYLGDTARVPYGIRSKETIVRYSKECANFLKDKGVDLLVVACNTASAYALEELKREFPFPVFGVIEPGVKEALRKSKTKRIGVIGTQATIKSGAYQEALKRAGAEVYSKACPLFVPLVEEGMIEGEIPKKVVEHYLKDFKGKVDTLILGCTHYPLLKREIQNFLEGVNVIDSSRATAKSLKDFVKNEGSGSLELYFTDRSQNLERLIKLILGEEVEPKITSEVFVL	soluble
NNELSPVALRQMSCAAGTTQTACTDDNALAYYNNSKGGRFVLALLSDHQDLKWARFPKSDGTGTIYTELEPPCRFVTDTPKGPKVKYLYFIKGLNNLNRGMVLESLAATVRLQLEHHHHHH	soluble
AELTCTDVSGLTAEEIQMRESLQYTDHSPYPDKTCANCQLYVPAESPDQCGGCQLIKGPIHPNGYCTSWVQKAT	soluble
MRLNFAYPATGLQKSFEVDEEKKLRLFFEKRMSQEVAIDALGDEWKGYVVRIGGGNDKQGFPMKQGILTNGRVRLLLKKGQSCYRERKNGERKRKSVRGCIVDANMSALSLVIVKKGDGEIEGLTDSVLPRKLGPKRASKIRKLFNLTKHDDVTKYVITHDKTFPDGVTKTIAPKIQRLITPARIARKKYLLRQKRNQKIKMRDDAAAYHKLLAKYSKEEHDAKIARRRSSASHHSESEVKKTSKK	not soluble
MGSDKIHHHHHHMEAKKSKAIVFSGVNQIELREVTLKPVSSTDVLVETWWSSISTGTEKMALNGLIPSPPFIFPFIPGYETVGRIVEAGDHVNQGLIGKFAYVAGSFGYEDVNAAFGGASQFIVCPVESLTVLDGIANPQCGIALPLGATALHIVDLAEVKNRKVLVLGQGAVGILAAELAKRFGASLVAVTEPHQRRLDISTSDIKVNPEKQDVSVALAGHEFDVLIDSTGIMSAIETGLRFLKFHGKVIFGGYYQRMNIDYSQAFNKELSFIAARQWAKGDLHRVRELIAAGKINAEKIFTHQCTVDDNLMEAYMQAFSDSDCLKMIIHWKHGNEAGEHFPTCNTAN	not soluble
MLLFPRRTNIAFFKTTGIFANFPLLGRTITTSPSFLTHKLSKEVTRASTSPPRPKRIVVAITGATGVALGIRLLQVLKELSVETHLVISKWGAATMKYETDWEPHDVAALATKTYSVRDVSACISSGSFQHDGMIVVPCSMKSLAAIRIGFTEDLITRAADVSIKENRKLLLVTRETPLSSIHLENMLSLCRAGVIIFPPVPAFYTRPKSLHDLLEQSVGRILDCFGIHADTFPRWEGIKSK	soluble
MELISIIVPVYNGEIYIGRCLDSILEQTYQNLEIIIIDDGSSDRTGDICEKYFLEDRRIKYFYQENRGQSVARNNGVLRCTGDWIAFLDSDDVYLPYSIEVMYNIQKATNADIVLTSIGNFNNTYNTSINSQYLKEIKLYTLEVALEEMYYGKTYGVSPLAKLYPRSNLLSNPYPEGKIHEDMDTTFKLISCASKIAVCDIVTAVVYFSDNSTTRTKFNERMLYFFEAIQNNIVFINLNFPHNTSLISAVIYNEVFGGIDICGKMIDFKLYDTVDYYRKKYRKYFKTILFNNRISVKEKVKYILFISSIRYFTIVRKIYNLRLSRNGLEHHHHHH	not soluble
MQEDTLTSRGNMPYSLNVLIPLSCDLRPPVPQAIHAGRVDHRELGFVHPVSPGDVVAEVLVPAGEHFSPEVAQHLIGEGCALGDASTEHTEGQGVPVVATRSGHLDWDERALAVRDTLVVDEDVTYHVGNIRYFGDLIVRGMVRVAFRVRARSLLVEGLIEGAFIECERLEARGGVKAGGSGRLRVRETVAAPFMENAIVHAGSHVVVSGSSLHNEIKSNASVQVAERLIGGMTAARDSITVGERLGGGMSTLTRVQVGYDPFLNTAVHRLEVQAQHVEEVMLSCAKLAGRGGRLGDKAKARGERYAAALKRLRRKLADLLARLDATSTLETCTIDVRGEVRPGVEICIGPARLMNQDFLKNVRFSYCDGAVVATHPAGRTALEHHHHHH	not soluble
